Laboratory results as given in paper PMC5069464.

How the values were obtained:
Conditions in all cases: glycan lost; control: wild type
[1] = whole-cell tail currents, Boltzmann fit
[2] = high-throughput patch (IonWorks Barracuda), peak current
[3] = cell-attached single-channel recording, tsA201
[4] = puromycin chase, >250 kDa band at 48 hr
[5] = whole-cell pre-pulse protocol, Boltzmann fit

Substance: hCaV3.3 α1 subunit: R1346H
- other: voltage dependence of activation, other: V1/2-negative [1]: no change, −37.6 ± 0.99 vs −40.0 ± 0.98
- other: channel current, other: median peak current [2]: decreases, 0.56 vs 1.30
- other: single-channel conductance, other: conductance [3]: no change, 13.7 ± 0.6 vs 14.0 ± 0.8
- degradation_or_half_life, other: fraction of pre-puromycin level [4]: no change, 0.50 ± 0.12 vs 0.36 ± 0.08
- other: voltage dependence of inactivation, other: V1/2 [5]: no change, −69.4 ± 1.4 vs −67.1 ± 0.89
